# According to IntAct's records for PubMed 24819706:
# B1: Transcriptional activator GLI3 (Homo sapiens), P10071 (parent)
# chain: MEAQSHSSTTTEKKKVENSIVKCSTRTDVSEKAVASSTTSNEDESPGQTYHRERRNAITMQPQNVQGLSKVSEEPSTSSDERASLIKKEIHGSLPHVAEPSVPYRGTVFAMDPRNGYMEPHYHPPHLFPAFHPPVPIDARHHEGRYHYDPSPIPPLHMTSALSSSPTYPDLPFIRISPHRNPTAASESPFSPPHPYINPYMDYIRSLHSSPSLSMISATRGLSPTDAPHAGVSPAEYYHQMALLTGQRSPYADIIPSAATAGTGAIHMEYLHAMDSTRFSSPRLSARPSRKRTLSISPLSDHSFDLQTMIRTSPNSLVTILNNSRSSSSASGSYGHLSASAISPALSFTYSSAPVSLHMHQQILSRQQSLGSAFGHSPPLIHPAPTFPTQRPIPGIPTVLNPVQVSSGPSESSQNKPTSESAVSSTGDPMHNKRSKIKPDEDLPSPGARGQQEQPEGTTLVKEEGDKDESKQEPEVIYETNCHWEGCAREFDTQEQLVHHINNDHIHGEKKEFVCRWLDCSREQKPFKAQYMLVVHMRRHTGEKPHKCTFEGCTKAYSRLENLKTHLRSHTGEKPYVCEHEGCNKAFSNASDRAKHQNRTHSNEKPYVCKIPGCTKRYTDPSSLRKHVKTVHGPEAHVTKKQRGDIHPRPPPPRDSGSHSQSRSPGRPTQGALGEQQDLSNTTSKREECLQVKTVKAEKPMTSQPSPGGQSSCSSQQSPISNYSNSGLELPLTDGGSIGDLSAIDETPIMDSTISTATTALALQARRNPAGTKWMEHVKLERLKQVNGMFPRLNPILPPKAPAVSPLIGNGTQSNNTCSLGGPMTLLPGRSDLSGVDVTMLNMLNRRDSSASTISSAYLSSRRSSGISPCFSSRRSSEASQAEGRPQNVSVADSYDPISTDASRRSSEASQSDGLPSLLSLTPAQQYRLKAKYAAATGGPPPTPLPNMERMSLKTRLALLGDALEPGVALPPVHAPRRCSDGGAHGYGRRHLQPHDAPGHGVRRASDPVRTGSEGLALPRVPRFSSLSSCNPPAMATSAEKRSLVLQNYTRPEGGQSRNFHSSPCPPSITENVTLESLTMDADANLNDEDFLPDDVVQYLNSQNQAGYEQHFPSALPDDSKVPHGPGDFDAPGLPDSHAGQQFHALEQPCPEGSKTDLPIQWNEVSSGSADLSSSKLKCGPRPAVPQTRAFGFCNGMVVHPQNPLRSGPAGGYQTLGENSNPYGGPEHLMLHNSPGSGTSGNAFHEQPCKAPQYGNCLNRQPVAPGALDGACGAGIQASKLKSTPMQGSGGQLNFGLPVAPNESAGSMVNGMQNQDPVGQGYLAHQLLGDSMQHPGAGRPGQQMLGQISATSHINIYQGPESCLPGAHGMGSQPSSLAVVRGYQPCASFGGSRRQAMPRDSLALQSGQLSDTSQTCRVNGIKMEMKGQPHPLCSNLQNYSGQFYDQTVGFSQQDTKAGSFSISDASCLLQGTSAKNSELLSPGANQVTSTVDSLDSHDLEGVQIDFDAIIDDGDHSSLMSGALSPSIIQNLSHSSSRLTTPRASLPFPALSMSTTNMAIGDMSSLLTSLAEESKFLAVMQ
# partner: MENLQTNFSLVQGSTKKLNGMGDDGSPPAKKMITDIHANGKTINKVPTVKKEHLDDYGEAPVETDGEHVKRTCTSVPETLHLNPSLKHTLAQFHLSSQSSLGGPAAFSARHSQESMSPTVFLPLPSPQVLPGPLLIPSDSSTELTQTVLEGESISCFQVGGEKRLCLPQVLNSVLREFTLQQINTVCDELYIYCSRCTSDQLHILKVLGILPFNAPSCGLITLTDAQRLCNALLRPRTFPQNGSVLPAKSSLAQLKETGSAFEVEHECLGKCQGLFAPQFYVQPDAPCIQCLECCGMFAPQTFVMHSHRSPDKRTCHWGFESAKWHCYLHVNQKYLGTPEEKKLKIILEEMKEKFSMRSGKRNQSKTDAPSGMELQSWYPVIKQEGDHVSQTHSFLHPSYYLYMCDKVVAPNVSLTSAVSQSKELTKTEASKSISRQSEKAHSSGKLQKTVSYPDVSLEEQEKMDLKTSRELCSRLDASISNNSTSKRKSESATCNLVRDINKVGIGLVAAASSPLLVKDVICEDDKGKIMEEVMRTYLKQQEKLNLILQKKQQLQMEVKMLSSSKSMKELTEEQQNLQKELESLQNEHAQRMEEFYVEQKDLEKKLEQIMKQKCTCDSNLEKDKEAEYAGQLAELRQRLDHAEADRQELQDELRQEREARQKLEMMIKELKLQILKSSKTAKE
# Variants of: B1
# Conditions: with skil_human SKIL
row,effect of a mutation on the interaction,Variant
1,decreasing interaction strength,M111T
